Tests used:
human CTLA-4 [1] = biological target: T1, human CTLA-4 (human, UniProt P16410 36-161); test: AlphaLISA Human CTLA-4/CD80 Binding Kit, inhibition of human CTLA-4/CD80 (B7-1) binding; concentration as human Fc (Fig. 7-3-1 B)
T1 sequence (looked up): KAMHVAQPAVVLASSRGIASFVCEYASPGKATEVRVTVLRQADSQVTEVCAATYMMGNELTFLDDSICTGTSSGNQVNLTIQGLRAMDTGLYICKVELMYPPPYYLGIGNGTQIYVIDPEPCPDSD

human CTLA-4 [2] = biological target: T1, human CTLA-4; test: AlphaLISA Human CTLA-4/CD80 Binding Kit, inhibition of human CTLA-4/CD80 (B7-1) binding; concentration as human Fc (Fig. 7-3-2 B)
mouse PD-1 = biological target: T2, mouse PD-1 (mouse, UniProt Q02242 25-167); test: AlphaLISA Mouse PD-1 and PD-L1 Binding Kit, inhibition of mouse PD-1/PD-L1 binding; concentration as human Fc (Fig. 1-3-1 B)
T2 sequence (looked up): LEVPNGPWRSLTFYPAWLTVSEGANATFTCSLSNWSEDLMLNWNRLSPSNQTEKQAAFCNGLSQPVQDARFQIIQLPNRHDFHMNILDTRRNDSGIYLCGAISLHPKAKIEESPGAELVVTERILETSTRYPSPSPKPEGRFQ

B1: anti-human CTLA4 antibody (derived from ipilimumab), expressed from the Ipi/SV-01 plasmid (antibody, human IgG1, kappa, V domains shown)
VH: QVQLVESGGGVVQPGRSLRLSCAASGFTFSSYTMHWVRQAPGKGLEWVTSISYDGNNKYYADSVKGRFTISRDNSKNTLYLQMNSLRAEDTAIYYCARTGWLGPFDYWGQGTLVTVSS
VL: not shown
notes: also called antibody encoded by T-Ipi
Human CTLA-4 [1]
  IC50: 8.24 ng/mL

B2: anti-human CTLA4 antibody (derived from ticilimumab), expressed from the Tic/SV-01 plasmid (antibody, human IgG2, kappa, V domains shown)
VH: QVQLVESGGGVVQPGRSLRLSCAASGFTFSSYGMHWVRQAPGKGLEWVAVIWYDGSNKYYADSVKGRFTISRDNSKNTLYLQMNSLRAEDTAVYYCARDPRGATLYYYYYGMDVWGQGTTVTVSS
VL: DIQMTQSPSSLSASVGDRVTITCRASQSINSYLDWYQQKPGKAPKLLIYAASSLQSGVPSRFSGSGSGTDFTLTISSLQPEDFATYYCQQYYSTPFTFGPGTKVEIKR
notes: also called antibody encoded by T-Tic; derived from ticilimumab (tremelimumab)
Human CTLA-4 [2]
  IC50: 0.0254 µg/mL

B3: anti-mouse PD-1 antibody (derived from J43) with human IgG4 heavy chain constant region and human λ light chain constant region, expressed from the J43/SV-01 … (antibody, V domains shown)
VH: EVRLLESGGGLVKPEGSLKLSCVASGFTFSDYFMSWVRQAPGKGLEWVAHIYTKSYNYATYYSGSVKGRFTISRDDSRSMVYLQMNNLRTEDTATYYCTRDGSGYPSLDFWGQGTQVTVSS
VL: YELTQPPSASVVGETVKITCSGDQLPKYFADWFHQRSDQTILQVIYDDNKRPSGIPERISGSSSGTTATLTIRDVRAEDEGDYYCFSGYVDSDSKLYVFGSGTQLTVLG
notes: also called antibody encoded by T-J43
Mouse PD-1
  IC50: 6.81 ng/mL
